Measured values from patent US20220175781A1, “CD40L COMPOSITIONS AND METHODS FOR TUNABLE REGULATION” (Obsidian Therapeutics, Inc., priority 2019, published 2022).
Several values for one entry are separate records, joined by “and”; a condition that tells them apart may be missing. Equal entries are not always repeated.

Legend:
Jurkat cells [1] = assay: DHFR regulated CD40L expression, transduced Jurkat cells (flow cytometry); format: cell-based
Method: Jurkat cells were transduced with lentiviruses corresponding to OT-001662, OT-001962, OT-001961, OT-001963. 24 hours after transduction, cells were split and treated with DMSO or 50 μM TMP for another 24 hours until flow cytometry-based analysis. The results are shown in Table 37 where SR indicates stabilization ration.

CD40 = CD40 (UniProt P25942); assay: cell-based or functional assay
Jurkat cells [2] = assay: Linker length, ER regulated CD40L, % CD40L positive Jurkat cells; format: cell-based
Method: Jurkat cells were lentivirally transduced and 24 hours after transduction were treated with DMSO or 1 μM Bazedoxifene for another 24 hours and analyzed by flow cytometry for surface expression of CD40L. […] In Table 33, SR indicates stabilization ratio.

[3] = tested on: T cells (CD4 and CD8 positive); assay: Bazedoxifene dose response, CD40L MFI in CD4 and CD8 positive T cells (day 4, freeze/thaw, restimulation); format: cell-based
Method: Dose response with Bazedoxifene in T cells were conducted for OT-001966, OT-001967, OT-001666. Expression of CD40L was measured at (a) day 4 after transduction, (b) after freezing and thawing the cells or (c) after freezing and thawing the cells followed by restimulation with CD3/CD28 beads. The CD40L MFI (median fluorescence intensity) within CD4 and CD8 positive subpopulations is shown in Table 34 and Table 35 respectively.

Jurkat cells [4] = assay: CD40L shedding ELISA of supernatant, Jurkat cells with or without CD40-Fc receptor; format: cell-based; set-up: CD40L levels in supernatant: unit not given here; conditions: 6 hours
Method: Sheddases e.g. ADAM10/17 present in the tumor microenvironment can cleave CD40L thereby preventing the successful activation of CD40 by CD40L. […] OT-001669 which has a deletion of amino acids 1-13 of CD40L was designed to reduce internalization and OT-001668 which has a deletion of amino acids 110-116 of CD40L was designed to remove the ADAM10/17 sites. Jurkat cells stably expressing the full length construct OT-001661, OT-001669, or OT-001668 were cultured for 6 hours with 1.25 μg/ml recombinant human (h) or mouse (m) CD40-Fc receptor or left untreated and tested using an ELISA assay (Table 15).

T cells (CD4+ and CD8+) = assay: Co-expression of CD40L and CD19 CAR on transduced T cells; format: cell-based
Excerpt: The results for CD4+ and CD8+ cells and total cells are shown below.

Jurkat cells [5] = assay: In vivo CD40L regulation in Jurkat cells harvested from bone marrow of NSG mice; conditions: constitutive construct, Jurkat cells from bone marrow, day 16
Excerpt: Jurkat cells stably expressing OT-001661, OT-002034 were intravenously infused into 8-week old NSG mice (20 million cells per mouse). Starting by day 15, mice were orally dosed according to the study design shown in Table 42 and Jurkat cells were harvested on day 16 from the bone marrow and analyzed by FACS. In Tables 41 and 42, TMP refers to Trimethoprim and all dosing is relative to “0 hr” time point on day 16. The results are shown in Table 43 and Table 44 where “EV” refers to empty vector control.

Sequence of CD40 (P25942 21-277 limits assumed): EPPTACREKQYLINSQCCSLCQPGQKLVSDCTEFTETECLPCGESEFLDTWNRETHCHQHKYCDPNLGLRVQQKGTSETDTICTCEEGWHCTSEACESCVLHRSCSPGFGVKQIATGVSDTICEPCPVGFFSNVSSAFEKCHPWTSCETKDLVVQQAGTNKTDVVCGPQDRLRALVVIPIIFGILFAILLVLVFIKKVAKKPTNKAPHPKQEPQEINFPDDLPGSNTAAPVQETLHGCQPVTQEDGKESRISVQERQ

B1: OT-001662: CD40L construct with ecDHFR (M1del, R12Y, Y100I) DRD, ligand TMP (protein)
chain: MSGISLIAALAVDYVIGMENAMPWNLPADLAWFKRNTLNKPVIMGRHTWESIGRPLPGRKNIILSSQPGTDDRVTWVKSVDEAIAACGDVPEIMVIGGGRVIEQFLPKAQKLYLTHIDAEVEGDTHFPDYEPDDWESVFSEFHDADAQNSHSYCFEILERRHMIETYNQTSPRSAATGLPISMKIFMYLLTVFLITQMIGSALFAVYLHRRLDKIEDERNLHEDFVFMKTIQRCNTGERSLSLLNCEEIKSQFEGFVKDIMLNKEETKKENSFEMQKGDQNPQIAAHVISEASSKTTSVLQWAEKGYYTMSNNLVTLENGKQLTVKRQGLYYIYAQVTFCSNREASSQAPFIASLCLKSPGRFERILLRAANTHSSAKPCGQQSIHLGGVFELQPGASVFVNVTDPSQVSHGTGFTSFGLLKL
- % CD40L expression (Jurkat cells [1]; TMP (50 μM)): 90%
- SR (Jurkat cells [1]; TMP (50 μM) versus Vehicle): 90
- % CD40L expression (Jurkat cells [1]; Vehicle (DMSO)): 1%

B2: OT-001666 (Met; ER (305-549 of WT, L384M, N413D, M421G, G521R, Y537S); Histidine; CD40L; stop) (ligand)
chain: MSLALSLTADQMVSALLDAEPPILYSEYDPTRPFSEASMMGLLTNLADRELVHMINWAKRVPGFVDLTLHDQVHLLECAWMEILMIGLVWRSMEHPGKLLFAPNLLLDRDQGKCVEGGVEIFDMLLATSSRFRMMNLQGEEFVCLKSIILLNSGVYTFLSSTLKSLEEKDHIHRVLDKITDTLIHLMAKAGLTLQQQHQRLAQLLLILSHIRHMSNKRMEHLYSMKCKNVVPLSDLLLEMLDAHRLHMIETYNQTSPRSAATGLPISMKIFMYLLTVFLITQMIGSALFAVYLHRRLDKIEDERNLHEDFVFMKTIQRCNTGERSLSLLNCEEIKSQFEGFVKDIMLNKEETKKENSFEMQKGDQNPQIAAHVISEASSKTTSVLQWAEKGYYTMSNNLVTLENGKQLTVKRQGLYYIYAQVTFCSNREASSQAPFIASLCLKSPGRFERILLRAANTHSSAKPCGQQSIHLGGVFELQPGASVFVNVTDPSQVSHGTGFTSFGLLKL
- SEAP reporter of HEK-Blue CD40 cells co-cultured 24 hours with transduced Jurkat cells plus 1 µM Bazedoxifene, given as Soluble CD40L (pg/ml) against a recombinant soluble CD40L standard (CD40): 1820 pg/mL
- Percent of Jurkat cells expressing CD40L (Jurkat cells [2]; 1 μM Bazedoxifene): 30%
- SR (Jurkat cells [2]; 1 μM Bazedoxifene versus DMSO, % CD40L positive Jurkat cells): 3
- Percent of Jurkat cells expressing CD40L (Jurkat cells [2]; DMSO): 10%
- CD40L expression (MFI) ([3]; CD4+ cells, Day 4, Bazedoxifene 0.01 nM): 372
- CD40L expression (MFI) ([3]; CD4+ cells, Day 4, Bazedoxifene 0.1 nM): 420
- CD40L expression (MFI) ([3]; CD4+ cells, Day 4, Bazedoxifene 1 nM): 427
- CD40L expression (MFI) ([3]; CD4+ cells, Day 4, Bazedoxifene 10 nM): 476
- CD40L expression (MFI) ([3]; CD4+ cells, Day 4, Bazedoxifene 100 nM): 732
- CD40L expression (MFI) ([3]; CD4+ cells, Day 4, Bazedoxifene 1000 nM): 1397
- CD40L expression (MFI) ([3]; CD4+ cells, Day 4, Bazedoxifene 10000 nM): 1274
- CD40L expression (MFI) ([3]; CD4+ cells, Post Thaw, Bazedoxifene 0.01 nM): 134
- CD40L expression (MFI) ([3]; CD4+ cells, Post Thaw, Bazedoxifene 0.1 nM): 138
- CD40L expression (MFI) ([3]; CD4+ cells, Post Thaw, Bazedoxifene 1 nM): 145
- CD40L expression (MFI) ([3]; CD4+ cells, Post Thaw, Bazedoxifene 10 nM): 162
- CD40L expression (MFI) ([3]; CD4+ cells, Post Thaw, Bazedoxifene 100 nM): 208
- CD40L expression (MFI) ([3]; CD4+ cells, Post Thaw, Bazedoxifene 1000 nM): 241
- CD40L expression (MFI) ([3]; CD4+ cells, Post Thaw, Bazedoxifene 10000 nM): 537
- CD40L expression (MFI) ([3]; CD4+ cells, Restim, Bazedoxifene 0.01 nM): 592
- CD40L expression (MFI) ([3]; CD4+ cells, Restim, Bazedoxifene 0.1 nM): 658
- CD40L expression (MFI) ([3]; CD4+ cells, Restim, Bazedoxifene 1 nM): 682
- CD40L expression (MFI) ([3]; CD4+ cells, Restim, Bazedoxifene 10 nM): 658
- CD40L expression (MFI) ([3]; CD4+ cells, Restim, Bazedoxifene 100 nM): 953
- CD40L expression (MFI) ([3]; CD4+ cells, Restim, Bazedoxifene 1000 nM): 1688
- CD40L expression (MFI) ([3]; CD4+ cells, Restim, Bazedoxifene 10000 nM): 1577
- CD40L expression (MFI) ([3]; CD8+ cells, Day 4, Bazedoxifene 0.01 nM): 165
- CD40L expression (MFI) ([3]; CD8+ cells, Day 4, Bazedoxifene 0.1 nM): 171
- CD40L expression (MFI) ([3]; CD8+ cells, Day 4, Bazedoxifene 1 nM): 172
- CD40L expression (MFI) ([3]; CD8+ cells, Day 4, Bazedoxifene 10 nM): 176
- CD40L expression (MFI) ([3]; CD8+ cells, Day 4, Bazedoxifene 100 nM): 313
- CD40L expression (MFI) ([3]; CD8+ cells, Day 4, Bazedoxifene 1000 nM): 601
- CD40L expression (MFI) ([3]; CD8+ cells, Day 4, Bazedoxifene 10000 nM): 404
- CD40L expression (MFI) ([3]; CD8+ cells, Post Thaw, Bazedoxifene 0.01 nM): 103
- CD40L expression (MFI) ([3]; CD8+ cells, Post Thaw, Bazedoxifene 0.1 nM): 105
- CD40L expression (MFI) ([3]; CD8+ cells, Post Thaw, Bazedoxifene 1 nM): 107
- CD40L expression (MFI) ([3]; CD8+ cells, Post Thaw, Bazedoxifene 10 nM): 117
- CD40L expression (MFI) ([3]; CD8+ cells, Post Thaw, Bazedoxifene 100 nM): 170
- CD40L expression (MFI) ([3]; CD8+ cells, Post Thaw, Bazedoxifene 1000 nM): 213
- CD40L expression (MFI) ([3]; CD8+ cells, Post Thaw, Bazedoxifene 10000 nM): 326
- CD40L expression (MFI) ([3]; CD8+ cells, Restim, Bazedoxifene 0.01 nM): 238
- CD40L expression (MFI) ([3]; CD8+ cells, Restim, Bazedoxifene 0.1 nM): 244
- CD40L expression (MFI) ([3]; CD8+ cells, Restim, Bazedoxifene 1 nM): 263
- CD40L expression (MFI) ([3]; CD8+ cells, Restim, Bazedoxifene 10 nM): 253
- CD40L expression (MFI) ([3]; CD8+ cells, Restim, Bazedoxifene 100 nM): 354
- CD40L expression (MFI) ([3]; CD8+ cells, Restim, Bazedoxifene 1000 nM): 567
- CD40L expression (MFI) ([3]; CD8+ cells, Restim, Bazedoxifene 10000 nM): 458

B3: OT-001661: constitutively expressed full length CD40L construct (protein)
chain: MHMIETYNQTSPRSAATGLPISMKIFMYLLTVFLITQMIGSALFAVYLHRRLDKIEDERNLHEDFVFMKTIQRCNTGERSLSLLNCEEIKSQFEGFVKDIMLNKEETKKENSFEMQKGDQNPQIAAHVISEASSKTTSVLQWAEKGYYTMSNNLVTLENGKQLTVKRQGLYYIYAQVTFCSNREASSQAPFIASLCLKSPGRFERILLRAANTHSSAKPCGQQSIHLGGVFELQPGASVFVNVTDPSQVSHGTGFTSFGLLKL
- CD40L levels in supernatant (Jurkat cells [4]; 1.25 μg/ml hCD40-Fc): 3599.72
- CD40L levels in supernatant (Jurkat cells [4]; 1.25 μg/ml mCD40-Fc): 2589.21
- CD40L levels in supernatant (Jurkat cells [4]; Untreated): 1382.06
- Percent of Cells co-expressing CD40L and CD19 CAR (T cells (CD4+ and CD8+); All Cells): 0%
- Percent of Cells co-expressing CD40L and CD19 CAR (T cells (CD4+ and CD8+); CD4+): 0%
- Percent of Cells co-expressing CD40L and CD19 CAR (T cells (CD4+ and CD8+); CD8+): 0%
- CD40L MFI values (Jurkat cells [5]; Average): 586.5
- Percent CD40L positive cells (Jurkat cells [5]; Average): 58.9%
- CD40L MFI values (Jurkat cells [5]; individual mice): 507 and 572 and 660 and 607
- Percent CD40L positive cells (Jurkat cells [5]; individual mice): 52.5% and 57.5% and 64.2% and 61.4%
